Reference: patent publication US20110300138A1 (published 2011)
Blank lines part the entries; values can stand above or below the substance they belong to.

Assays:
[1] = target: human thyroid stimulating hormone receptor (TSHR), full length (human) (UniProt P16473); assay: 125I-K1-18 Fab competition, TSHR coated tubes; 0.01 µg/mL in HBD
[2] = target: human thyroid stimulating hormone receptor (TSHR), full length (human) (UniProt P16473); assay: 125I-K1-18 Fab competition, TSHR coated tubes; 0.001 µg/mL in assay buffer
[3] = target: TSHR260-alkaline phosphatase (TSHR260-AP) (human) (UniProt P05187); assay: TSHR260-AP bridge ELISA, full length TSHR on wells; 10 µg/mL, diluted in HBD
[4] = target: TSHR260-alkaline phosphatase (TSHR260-AP) (human) (UniProt P05187); assay: TSHR260-AP bridge ELISA, full length TSHR on wells; 0.1 µg/mL, diluted in HBD
[5] = target: TSHR260-alkaline phosphatase (TSHR260-AP) (human) (UniProt P05187); assay: TSHR260-AP bridge ELISA, full length TSHR on wells; 250 µg/mL, diluted in HBD
[6] = target: TSHR260-alkaline phosphatase (TSHR260-AP) (human) (UniProt P05187); assay: TSHR260-AP bridge ELISA, full length TSHR on wells; 0.005 µg/mL, diluted in HBD
[7] = target: TSHR260-alkaline phosphatase (TSHR260-AP) (human) (UniProt P05187); assay: TSHR260-AP bridge ELISA, full length TSHR on wells; 10 µg/mL, diluted in assay buffer
[8] = target: TSHR260-alkaline phosphatase (TSHR260-AP) (human) (UniProt P05187); assay: TSHR260-AP bridge ELISA, full length TSHR on wells; 0.1 µg/mL, diluted in assay buffer
[9] = target: TSHR260-alkaline phosphatase (TSHR260-AP) (human) (UniProt P05187); assay: TSHR260-AP bridge ELISA, full length TSHR on wells; 0.005 µg/mL, diluted in assay buffer
[10] = target: TSH receptor (TSHR), full length human, coated on tubes (human) (UniProt P16473); assay: inhibition of 125I-TSH binding to TSHR coated tubes; 0.001 µg/mL, diluted in HBD serum pool
[11] = target: TSH receptor (TSHR), full length human, coated on tubes (human) (UniProt P16473); assay: inhibition of 125I-TSH binding to TSHR coated tubes; 0.003 µg/mL, diluted in HBD serum pool
[12] = target: TSH receptor (TSHR) coated on tubes (human) (UniProt P16473); assay: inhibition of 125I-K1-70 IgG binding to TSHR coated tubes; sample 0.01 µg/mL in HBD serum pool
[13] = target: human TSH receptor (full length), coated on tubes (human) (UniProt P16473); assay: inhibition of 125I-K1-70 Fab (competitor) binding to TSHR coated tubes; 0.03 µg/mL in HBD serum pool
[14] = target: human TSH receptor (full length), coated on tubes (human) (UniProt P16473); assay: inhibition of 125I-K1-70 Fab (competitor) binding to TSHR coated tubes; 0.003 µg/mL in HBD serum pool
[15] = target: TSHR260-AP (fusion protein consisting of a fragment of human TSHR, amino acids 22-260, with alkaline phosphatase) (human); assay: bridging ELISA: full length TSHR on wells, TSHR260-AP in liquid phase; IgG 1 µg/mL in HBD serum
[16] = target: TSHR260-AP (fusion protein consisting of a fragment of human TSHR, amino acids 22-260, with alkaline phosphatase) (human); assay: as above; remark: listed apart in the source
[17] = target: TSHR260-AP (fusion protein consisting of a fragment of human TSHR, amino acids 22-260, with alkaline phosphatase) (human); assay: bridging ELISA: full length TSHR on wells, TSHR260-AP in liquid phase; IgG 10 µg/mL in HBD serum
[18] = target: TSHR260-AP (fusion protein consisting of a fragment of human TSHR, amino acids 22-260, with alkaline phosphatase) (human); assay: as above; remark: listed apart in the source
[19] = target: TSHR260-AP (fusion protein consisting of a fragment of human TSHR, amino acids 22-260, with alkaline phosphatase) (human); assay: bridging ELISA: full length TSHR on wells, TSHR260-AP in liquid phase; IgG 0.1 µg/mL in HBD serum
[20] = target: TSHR260-AP (fusion protein consisting of a fragment of human TSHR, amino acids 22-260, with alkaline phosphatase) (human); assay: bridging ELISA: full length TSHR on wells, TSHR260-AP in liquid phase; IgG 0.5 µg/mL in HBD serum
[21] = target: TSHR260-AP (fusion protein consisting of a fragment of human TSHR, amino acids 22-260, with alkaline phosphatase) (human); assay: bridging ELISA: full length TSHR on wells, TSHR260-AP in liquid phase; IgG 0.1 µg/mL in HBD serum; remark: listed apart in the source
[22] = target: TSHR260-AP (fusion protein consisting of a fragment of human TSHR, amino acids 22-260, with alkaline phosphatase) (human); assay: bridging ELISA: full length TSHR on wells, TSHR260-AP in liquid phase; IgG 0.5 µg/mL in HBD serum; remark: listed apart in the source
[23] = target: TSHR260-AP (fusion protein consisting of a fragment of human TSHR, amino acids 22-260, with alkaline phosphatase) (human); assay: bridging ELISA: full length TSHR on wells, TSHR260-AP in liquid phase; IgG 0.01 µg/mL in HBD serum
[24] = target: TSHR260-AP (fusion protein consisting of a fragment of human TSHR, amino acids 22-260, with alkaline phosphatase) (human); assay: bridging ELISA: full length TSHR on wells, TSHR260-AP in liquid phase; IgG 0.05 µg/mL in HBD serum
[25] = target: TSHR260-AP (fusion protein consisting of a fragment of human TSHR, amino acids 22-260, with alkaline phosphatase) (human); assay: bridging ELISA: full length TSHR on wells, TSHR260-AP in liquid phase; IgG 0.01 µg/mL in HBD serum; remark: listed apart in the source
[26] = target: TSHR260-AP (fusion protein consisting of a fragment of human TSHR, amino acids 22-260, with alkaline phosphatase) (human); assay: bridging ELISA: full length TSHR on wells, TSHR260-AP in liquid phase; IgG 0.05 µg/mL in HBD serum; remark: listed apart in the source
[27] = target: TSHR260-AP (fusion protein consisting of a fragment of human TSHR, amino acids 22-260, with alkaline phosphatase) (human); assay: bridging ELISA: full length TSHR on wells, TSHR260-AP in liquid phase; IgG 0.005 µg/mL in HBD serum
[28] = target: TSHR260-AP (fusion protein consisting of a fragment of human TSHR, amino acids 22-260, with alkaline phosphatase) (human); assay: as above; remark: listed apart in the source

Sequence of M22 Fab (VH): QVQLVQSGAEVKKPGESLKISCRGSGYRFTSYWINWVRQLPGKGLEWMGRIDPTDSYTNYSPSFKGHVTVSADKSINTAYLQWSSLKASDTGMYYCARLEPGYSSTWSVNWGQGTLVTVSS
Sequence of M22 Fab (V domain): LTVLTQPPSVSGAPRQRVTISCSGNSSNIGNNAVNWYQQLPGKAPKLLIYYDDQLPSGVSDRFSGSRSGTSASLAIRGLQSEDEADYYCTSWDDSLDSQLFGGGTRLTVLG

- Inhibition of binding (%) [1]: 20.4%
- Inhibition of binding (%) [2]: -0.7%
- Mean absorbance at 405 nm (absorbance at 405 nm) [3]: 0.01
- Mean absorbance at 405 nm (absorbance at 405 nm) [4]: -0.007
- Mean absorbance at 405 nm (absorbance at 405 nm) [5]: 0.031
- Mean absorbance at 405 nm (absorbance at 405 nm) [6]: -0.013
- Mean absorbance at 405 nm (absorbance at 405 nm) [7]: 0.034
- Mean absorbance at 405 nm (absorbance at 405 nm) [8]: 0.015
- Mean absorbance at 405 nm (absorbance at 405 nm) [9]: -0.004
- Inhibition of binding (%) [10]: -11.2%
- Inhibition of binding (%) [11]: -7.9%
- Inhibition of binding (%) [12]: 34%
- Inhibition of binding (%) [13]: 66.8%
- Inhibition of binding (%) [14]: 11.5%
Substance: M22 Fab

- Mean absorbance at 405 nm (absorbance at 405 nm) [15]: 1.09
- Mean absorbance at 405 nm (absorbance at 405 nm) [16]: 1.17
- Mean absorbance at 405 nm (absorbance at 405 nm) [17]: 1.27
- Mean absorbance at 405 nm (absorbance at 405 nm) [18]: 1.36
- Mean absorbance at 405 nm (absorbance at 405 nm) [19]: 0.548
- Mean absorbance at 405 nm (absorbance at 405 nm) [20]: 1.02
- Mean absorbance at 405 nm (absorbance at 405 nm) [21]: 0.599
- Mean absorbance at 405 nm (absorbance at 405 nm) [22]: 1.09
- Mean absorbance at 405 nm (absorbance at 405 nm) [23]: 0.043
- Mean absorbance at 405 nm (absorbance at 405 nm) [24]: 0.292
- Mean absorbance at 405 nm (absorbance at 405 nm) [25]: 0.064
- Mean absorbance at 405 nm (absorbance at 405 nm) [26]: 0.332
- Mean absorbance at 405 nm (absorbance at 405 nm) [27]: 0.011
- Mean absorbance at 405 nm (absorbance at 405 nm) [28]: 0.032
Substance: M22 IgG (human monoclonal thyroid stimulating autoantibody, hMAb TSHR1)
